{
  "source": "paper PMC6386614",
  "molecular_target": "T1, hnRNP H1-His6 (UniProt P31943 1-449)",
  "T1 sequence": "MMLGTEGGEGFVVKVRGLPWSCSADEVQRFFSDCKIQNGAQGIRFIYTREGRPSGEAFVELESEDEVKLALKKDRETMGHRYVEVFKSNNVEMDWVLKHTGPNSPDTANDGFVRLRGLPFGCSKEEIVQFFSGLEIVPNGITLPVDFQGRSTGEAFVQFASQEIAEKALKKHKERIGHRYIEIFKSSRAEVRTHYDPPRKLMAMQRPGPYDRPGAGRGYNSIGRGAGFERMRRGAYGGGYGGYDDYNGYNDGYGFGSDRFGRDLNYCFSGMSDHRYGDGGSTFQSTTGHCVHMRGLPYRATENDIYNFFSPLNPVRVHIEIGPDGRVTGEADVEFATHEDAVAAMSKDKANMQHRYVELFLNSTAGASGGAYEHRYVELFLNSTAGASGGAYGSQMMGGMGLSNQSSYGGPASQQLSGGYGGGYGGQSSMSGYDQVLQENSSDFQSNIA",
  "experiment": "EMSA",
  "data": [
    {"binder": "GGGGCCGGGGCCGGGGCCGGGGCCGGGGCCGGGGCCGGGGCCGGGGCC (structured_RNA)", "note": "[r(G4C2)8 (32P)]", "values": [
      {"measurement": "Kd", "result": "65 ± 26", "unit": "nM"}
    ]}
  ]
}
